These results are taken from US20100197896A1 (published 2010).

This assay addresses T1, human CD20 antigen (human, UniProt P11836 1-297).
T1 construct: whole, on cells; also called MS4A1
T1 sequence (looked up): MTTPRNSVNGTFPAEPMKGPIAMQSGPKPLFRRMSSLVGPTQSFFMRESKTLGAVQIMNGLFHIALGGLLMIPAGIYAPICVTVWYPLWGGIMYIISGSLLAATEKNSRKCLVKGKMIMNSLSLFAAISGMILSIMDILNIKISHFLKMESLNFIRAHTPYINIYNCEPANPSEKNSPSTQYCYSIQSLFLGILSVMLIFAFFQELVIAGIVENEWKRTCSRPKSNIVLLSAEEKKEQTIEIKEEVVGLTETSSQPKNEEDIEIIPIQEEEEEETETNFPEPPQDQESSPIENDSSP
Description: competition flow cytometry against FITC-conjugated fr1F5 (FIG. 6). A general note: In flow cytometry, cells or beads pass a laser one at a time.

B1: framework-re-engineered 1F5 antibody (antibody, V domains shown)
VH: QVQLVASGAEVNKPGASVKVSCKASGYTFTSYNMHWVRQPPGRGLEWIGAIYPGNGDTSYNQKFKGRVTITADKSTSTAYMELSSLRSEDTAVYYCARSHYGSNYVDYFDYWGQGTTVTVSS
VL: DIQLTQSPSSLSASVGDRVTITCRASSSLSFMHWYQQKPGQAPVPVIYATSNLASGVPSRFSGSGSGTEFTLTISSLQPEDFATYFCHQWSSNPLTFGAGTKLTVLR
notes: also called fr1F5
For the molecule B1, the binding result is recorded as “binds”.

B2: murine 1F5 antibody (antibody, V domains shown)
VH: QVQLRQPGAELVKPGASVKMSCKASGYTFTSYNMHWVKQTPGQGLEWIGAIYPGNGDTSYNQKFKGKATLTADKSSSTAYMQLSSLTSEDSAVYYCARSHYGSNYVDYFDYWGQGTTLTVSS
VL: QIVLSQSPAILSASPGEKVTMTCRASSSLSFMHWYQQKPGSSPKPWIYATSNLASGVPARFSGSGSGTSYSLTISRVEAEDAATYFCHQWSSNPLTFGAGTKLELKR
notes: Mouse IgG with a kappa light chain, from hybridoma ATCC HB-9645; also called anti-CD20 mAb 1F5
Regarding B2, the binding result is recorded as “binds”.
